In article PMC9482650, “Quantitative fragmentomics allow affinity mapping of interactomes” (Nature Communications, 2022):

Tests used:
Assay in all cases: holdup assay
Design in all cases: key: below the threshold = too weak to quantify, mostly under pKd 3.1 to 4
Details in all cases: plain residues with an end cap or a label only (N-terminal biotin on a linker: ado-ado)
LAP2, Q96RT1 = biological target: LAP2, Q96RT1
MAGI2_6, Q86UL8 = biological target: MAGI2_6, Q86UL8
MAGI2_3, Q86UL8 = biological target: MAGI2_3, Q86UL8
HTRA4, P83105 = biological target: T1, HTRA4, P83105
T1 sequence (P83105 378-476, limits assumed, looked up): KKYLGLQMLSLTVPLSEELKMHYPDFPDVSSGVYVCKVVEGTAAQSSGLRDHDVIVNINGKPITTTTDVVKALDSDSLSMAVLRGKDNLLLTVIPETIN

SNTG2, Q9NY99 = biological target: T2, SNTG2, Q9NY99
T2 sequence (Q9NY99 68-166, limits assumed, looked up): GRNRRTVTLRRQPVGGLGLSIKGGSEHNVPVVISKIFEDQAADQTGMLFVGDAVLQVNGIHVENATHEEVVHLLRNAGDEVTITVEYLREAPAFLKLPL

GRIP2_4, Q9C0E4 = biological target: GRIP2_4, Q9C0E4
MPDZ_10, O75970 = biological target: T3, MPDZ_10, O75970
T3 sequence (O75970 1624-1722, limits assumed, looked up): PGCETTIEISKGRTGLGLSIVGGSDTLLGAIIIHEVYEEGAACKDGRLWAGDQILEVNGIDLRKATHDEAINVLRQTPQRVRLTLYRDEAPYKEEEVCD

PCLO, Q9Y6V0 = biological target: T4, PCLO, Q9Y6V0
T4 sequence (Q9Y6V0 4491-4600, limits assumed, looked up): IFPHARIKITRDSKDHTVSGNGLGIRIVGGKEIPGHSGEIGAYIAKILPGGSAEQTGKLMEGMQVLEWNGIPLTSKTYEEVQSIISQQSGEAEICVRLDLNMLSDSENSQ

MPP6, Q9NZW5 = biological target: T5, MPP6, Q9NZW5
T5 sequence (Q9NZW5 125-219, limits assumed, looked up): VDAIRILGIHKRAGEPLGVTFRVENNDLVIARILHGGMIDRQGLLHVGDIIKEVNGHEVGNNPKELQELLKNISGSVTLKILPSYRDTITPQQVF

MPP2, Q14168 = biological target: T6, MPP2, Q14168
T6 sequence (Q14168 180-250, limits assumed, looked up): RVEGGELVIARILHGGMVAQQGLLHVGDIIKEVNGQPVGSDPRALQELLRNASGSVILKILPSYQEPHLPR

GRIP2_5, Q9C0E4 = biological target: GRIP2_5, Q9C0E4
GRIP1_7, Q9Y3R0 = biological target: T7, GRIP1_7, Q9Y3R0
T7 sequence (Q9Y3R0 999-1096, limits assumed, looked up): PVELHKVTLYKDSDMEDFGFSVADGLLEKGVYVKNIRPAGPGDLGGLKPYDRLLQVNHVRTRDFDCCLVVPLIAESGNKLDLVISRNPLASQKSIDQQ

ARHGAP21, Q5T5U3 = biological target: T8, ARHGAP21, Q5T5U3
T8 sequence (Q5T5U3 45-169, limits assumed, looked up): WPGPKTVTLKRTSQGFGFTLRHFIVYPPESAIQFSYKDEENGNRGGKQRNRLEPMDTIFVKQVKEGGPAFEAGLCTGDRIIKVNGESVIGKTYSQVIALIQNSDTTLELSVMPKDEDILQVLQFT

MAGI3_2, Q5TCQ9 = biological target: MAGI3_2, Q5TCQ9
SCRIB_2, Q14160 = biological target: SCRIB_2, Q14160
MPDZ_5, O75970 = biological target: T9, MPDZ_5, O75970
T9 sequence (O75970 695-796, limits assumed, looked up): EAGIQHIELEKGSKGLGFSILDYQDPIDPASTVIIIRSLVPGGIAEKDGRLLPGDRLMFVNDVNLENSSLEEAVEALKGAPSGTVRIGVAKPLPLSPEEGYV

MPP7, Q5T2T1 = biological target: T10, MPP7, Q5T2T1
T10 sequence (Q5T2T1 134-230, limits assumed, looked up): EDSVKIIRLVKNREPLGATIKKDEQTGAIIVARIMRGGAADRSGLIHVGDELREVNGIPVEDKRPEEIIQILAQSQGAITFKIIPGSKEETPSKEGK

NHERF2_2, Q15599 = biological target: NHERF2_2, Q15599
LNX1_1, Q8TBB1 = biological target: LNX1_1, Q8TBB1
GRIP2_3, Q9C0E4 = biological target: GRIP2_3, Q9C0E4
IL16_1, Q14005 = biological target: IL16_1, Q14005
DLG1_1, Q12959 = biological target: DLG1_1, Q12959
DLG1_3, Q12959 = biological target: DLG1_3, Q12959
APBA2_2, Q99767 = biological target: T11, APBA2_2, Q99767
T11 sequence (Q99767 654-744, limits assumed, looked up): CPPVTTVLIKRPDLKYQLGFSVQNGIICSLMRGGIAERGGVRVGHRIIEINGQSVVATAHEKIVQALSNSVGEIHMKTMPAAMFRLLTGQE

NHERF4_2, Q86UT5 = biological target: NHERF4_2, Q86UT5
APBA1_2, Q02410 = biological target: T12, APBA1_2, Q02410
T12 sequence (Q02410 742-832, limits assumed, looked up): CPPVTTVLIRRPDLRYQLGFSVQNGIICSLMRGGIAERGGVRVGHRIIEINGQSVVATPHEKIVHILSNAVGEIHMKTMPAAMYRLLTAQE

MAGI2_3, Q86UL8, sequence (Q86UL8 600-682): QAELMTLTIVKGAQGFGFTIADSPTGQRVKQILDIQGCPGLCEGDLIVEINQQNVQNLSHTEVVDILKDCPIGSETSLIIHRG
IL16_1, Q14005, sequence (Q14005 210-306): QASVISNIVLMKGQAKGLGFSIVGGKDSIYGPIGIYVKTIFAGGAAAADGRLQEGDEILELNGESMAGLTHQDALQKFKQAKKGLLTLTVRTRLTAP
GRIP2_5, Q9C0E4, sequence (Q9C0E4 544-642): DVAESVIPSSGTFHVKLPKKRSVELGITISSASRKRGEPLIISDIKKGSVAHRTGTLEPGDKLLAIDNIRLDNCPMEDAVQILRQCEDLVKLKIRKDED
GRIP2_3, Q9C0E4, sequence (Q9C0E4 238-339): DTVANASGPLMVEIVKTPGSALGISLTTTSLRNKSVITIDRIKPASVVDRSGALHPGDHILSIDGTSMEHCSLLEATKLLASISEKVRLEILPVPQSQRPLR
LAP2, Q96RT1, sequence (Q96RT1 other isoform, or with tags, fused parts or gaps): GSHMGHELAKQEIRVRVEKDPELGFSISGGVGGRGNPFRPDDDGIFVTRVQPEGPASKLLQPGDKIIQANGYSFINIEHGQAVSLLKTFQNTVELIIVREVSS
LNX1_1, Q8TBB1, sequence (Q8TBB1 261-371): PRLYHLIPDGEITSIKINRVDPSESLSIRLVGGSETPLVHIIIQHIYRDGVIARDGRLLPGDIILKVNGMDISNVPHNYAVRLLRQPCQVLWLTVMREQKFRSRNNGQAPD
NHERF4_2, Q86UT5, sequence (Q86UT5 220-308): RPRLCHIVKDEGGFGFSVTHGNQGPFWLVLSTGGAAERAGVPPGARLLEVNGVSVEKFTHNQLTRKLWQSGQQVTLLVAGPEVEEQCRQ
MAGI3_2, Q5TCQ9, sequence (Q5TCQ9 398-503): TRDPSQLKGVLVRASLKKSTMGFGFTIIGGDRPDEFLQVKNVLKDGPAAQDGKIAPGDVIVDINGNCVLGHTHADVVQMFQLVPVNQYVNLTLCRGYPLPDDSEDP
NHERF2_2, Q15599, sequence (Q15599 142-238): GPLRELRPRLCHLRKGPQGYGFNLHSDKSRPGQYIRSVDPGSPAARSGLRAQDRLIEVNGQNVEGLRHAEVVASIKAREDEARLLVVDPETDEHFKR
MAGI2_6, Q86UL8, sequence (Q86UL8 1141-1229): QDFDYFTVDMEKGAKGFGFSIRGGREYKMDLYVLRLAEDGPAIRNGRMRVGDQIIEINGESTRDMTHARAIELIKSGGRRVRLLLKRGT
SCRIB_2, Q14160, sequence (Q14160 857-960): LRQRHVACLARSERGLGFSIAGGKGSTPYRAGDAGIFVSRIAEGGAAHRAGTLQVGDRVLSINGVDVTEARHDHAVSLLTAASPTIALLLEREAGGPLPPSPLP
GRIP2_4, Q9C0E4, sequence (Q9C0E4 446-548): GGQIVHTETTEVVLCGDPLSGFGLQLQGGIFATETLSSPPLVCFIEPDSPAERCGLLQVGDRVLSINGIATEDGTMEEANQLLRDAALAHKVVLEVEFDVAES

QLAEIAESGL [ITK, Q08881] was tested, and the pKd (LAP2, Q96RT1) was “below the threshold”, the pKd (MAGI2_6, Q86UL8) was 3.68 and the pKd (MAGI2_3, Q86UL8) was 3.58. The pKd (HTRA4, P83105) was “below the threshold”, the pKd (SNTG2, Q9NY99) was 3.82 and the pKd (GRIP2_4, Q9C0E4) was 3.49. For the same binder, the pKd (MPDZ_10, O75970) was “below the threshold”, the pKd (PCLO, Q9Y6V0) was “below the threshold” and the pKd (MPP6, Q9NZW5) was “below the threshold”. For the same binder, the pKd (MPP2, Q14168) was “below the threshold”, the pKd (GRIP2_5, Q9C0E4) was 3.65 and the pKd (GRIP1_7, Q9Y3R0) was “below the threshold”. For the same binder, the pKd (ARHGAP21, Q5T5U3) was 3.87, the pKd (MAGI3_2, Q5TCQ9) was “below the threshold” and the pKd (SCRIB_2, Q14160) was 3.6. For the same binder, the pKd (MPDZ_5, O75970) was 3.6, the pKd (MPP7, Q5T2T1) was “below the threshold” and the pKd (NHERF2_2, Q15599) was 4.27. The pKd (LNX1_1, Q8TBB1) was 3.9, the pKd (GRIP2_3, Q9C0E4) was 3.53 and the pKd (IL16_1, Q14005) was 3.48. For the same binder, the pKd (DLG1_1, Q12959) was “below the threshold”, the pKd (DLG1_3, Q12959) was 3.86 and the pKd (APBA2_2, Q99767) was 3.48. For the same binder, the pKd (NHERF4_2, Q86UT5) was 3.57 and the pKd (APBA1_2, Q02410) was “below the threshold”.

With EGGKKRESEA [APPL1, Q9UKG1] the pKd (LAP2, Q96RT1) was 3.59, the pKd (MAGI2_6, Q86UL8) was “below the threshold” and the pKd (MAGI2_3, Q86UL8) was “below the threshold”. For the same binder, the pKd (HTRA4, P83105) was “below the threshold”, the pKd (SNTG2, Q9NY99) was “below the threshold” and the pKd (GRIP2_4, Q9C0E4) was “below the threshold”. The pKd (MPDZ_10, O75970) was “below the threshold”, the pKd (PCLO, Q9Y6V0) was “below the threshold” and the pKd (MPP6, Q9NZW5) was “below the threshold”. For the same binder, the pKd (MPP2, Q14168) was “below the threshold”, the pKd (GRIP2_5, Q9C0E4) was “below the threshold” and the pKd (GRIP1_7, Q9Y3R0) was “below the threshold”. For the same binder, the pKd (ARHGAP21, Q5T5U3) was “below the threshold”, the pKd (MAGI3_2, Q5TCQ9) was “below the threshold” and the pKd (SCRIB_2, Q14160) was “below the threshold”. For the same binder, the pKd (MPDZ_5, O75970) was “below the threshold”, the pKd (MPP7, Q5T2T1) was “below the threshold” and the pKd (NHERF2_2, Q15599) was “below the threshold”. For the same binder, the pKd (LNX1_1, Q8TBB1) was “below the threshold”, the pKd (GRIP2_3, Q9C0E4) was “below the threshold” and the pKd (IL16_1, Q14005) was “below the threshold”. For the same binder, the pKd (DLG1_1, Q12959) was “below the threshold”, the pKd (DLG1_3, Q12959) was “below the threshold” and the pKd (APBA2_2, Q99767) was “below the threshold”. The pKd (NHERF4_2, Q86UT5) was “below the threshold” and the pKd (APBA1_2, Q02410) was “below the threshold”.

VGIERETDVL [EZH1, Q92800] was tested, and the pKd (LAP2, Q96RT1) was “below the threshold”, the pKd (MAGI2_6, Q86UL8) was “below the threshold” and the pKd (MAGI2_3, Q86UL8) was “below the threshold”. The pKd (HTRA4, P83105) was “below the threshold”, the pKd (SNTG2, Q9NY99) was “below the threshold” and the pKd (GRIP2_4, Q9C0E4) was “below the threshold”. The pKd (MPDZ_10, O75970) was “below the threshold”, the pKd (PCLO, Q9Y6V0) was “below the threshold” and the pKd (MPP6, Q9NZW5) was “below the threshold”. The pKd (MPP2, Q14168) was “below the threshold”, the pKd (GRIP2_5, Q9C0E4) was “below the threshold” and the pKd (GRIP1_7, Q9Y3R0) was “below the threshold”. For the same binder, the pKd (ARHGAP21, Q5T5U3) was 3.92, the pKd (MAGI3_2, Q5TCQ9) was 4 and the pKd (SCRIB_2, Q14160) was “below the threshold”. The pKd (MPDZ_5, O75970) was “below the threshold”, the pKd (MPP7, Q5T2T1) was “below the threshold” and the pKd (NHERF2_2, Q15599) was 3.6. The pKd (LNX1_1, Q8TBB1) was “below the threshold”, the pKd (GRIP2_3, Q9C0E4) was “below the threshold” and the pKd (IL16_1, Q14005) was “below the threshold”. For the same binder, the pKd (DLG1_1, Q12959) was 3.6, the pKd (DLG1_3, Q12959) was “below the threshold” and the pKd (APBA2_2, Q99767) was “below the threshold”. The pKd (NHERF4_2, Q86UT5) was “below the threshold” and the pKd (APBA1_2, Q02410) was “below the threshold”.

A pKd (LAP2, Q96RT1) of 4.03, a pKd (MAGI2_6, Q86UL8) of 3.99 and a pKd (MAGI2_3, Q86UL8) of 4.17 were found for PKLMGVETVV [DUSP10, Q9Y6W6] in this work. The pKd (HTRA4, P83105) was 3.74, the pKd (SNTG2, Q9NY99) was 4.51 and the pKd (GRIP2_4, Q9C0E4) was “below the threshold”. The pKd (MPDZ_10, O75970) was “below the threshold”, the pKd (PCLO, Q9Y6V0) was “below the threshold” and the pKd (MPP6, Q9NZW5) was 3.82. The pKd (MPP2, Q14168) was “below the threshold”, the pKd (GRIP2_5, Q9C0E4) was “below the threshold” and the pKd (GRIP1_7, Q9Y3R0) was “below the threshold”. It also gave a pKd (ARHGAP21, Q5T5U3) of 3.73, a pKd (MAGI3_2, Q5TCQ9) of 5.32 and a pKd (SCRIB_2, Q14160) of 3.98. The pKd (MPDZ_5, O75970) was 3.58, the pKd (MPP7, Q5T2T1) was “below the threshold” and the pKd (NHERF2_2, Q15599) was “below the threshold”. The pKd (LNX1_1, Q8TBB1) was 4.06, the pKd (GRIP2_3, Q9C0E4) was “below the threshold” and the pKd (IL16_1, Q14005) was 4.38. The pKd (DLG1_1, Q12959) was 5.06, the pKd (DLG1_3, Q12959) was 4.52 and the pKd (APBA2_2, Q99767) was “below the threshold”. For the same binder, the pKd (NHERF4_2, Q86UT5) was “below the threshold” and the pKd (APBA1_2, Q02410) was 4.08.
